By Kd is commonly meant the equilibrium constant for the complex coming apart.

The target of this data set is T1, Tbx2 T-box DNA-binding domain, TBX2(94-281) (UniProt Q60707 94-281).
T1 sequence: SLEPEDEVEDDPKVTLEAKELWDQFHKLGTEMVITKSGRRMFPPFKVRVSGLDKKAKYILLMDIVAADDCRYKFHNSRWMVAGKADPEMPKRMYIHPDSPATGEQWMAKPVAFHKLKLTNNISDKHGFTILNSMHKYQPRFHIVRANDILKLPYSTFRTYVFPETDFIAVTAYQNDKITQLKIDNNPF
As to the kind of experiment: fluorescence anisotropy; 50 mM HEPES/NaOH pH 7.3, 200 mM NaCl, 25 C, 10 min, 3.33 nM dsDNA probe. The settings on record: protein: recombinant, tags: N-terminal His tag removed by 3C protease (pETM14, NcoI/XhoI), blunt. Background: Polarisation of emitted light reports the rotation of a fluorescent probe.

B1: T-element (T-box) probe (dsDNA)
DNA 1: AATTTCACACCTAGGTGTGAAATT
DNA 2: AATTTCACACCTAGGTGTGAAATT
For the molecule B1, the Kd (label: fluorescein (printed at the 3' end), self-complementary palindrome, 2 copies) was roughly 602 nM.

B2: E-box probe (dsDNA)
DNA 1: GAGACCACGTGTTGAC
DNA 2: GTCAACACGTGGTCTC
Take B2: for the setting “label: fluorescein on S14 (printed at the 3' end), complement unlabeled”, the Kd is roughly 86 nM.

Values taken from article PMC8653791, “TBX2 controls a proproliferative gene expression program in melanoma”.
